Tested on: Escherichia coli TOP10
Test: shrunken log2 fold change of peptide-encoding DNA abundance (4.5 h post-induction vs induction); higher = less antimicrobial activity (less host growth inhibition)
Settings: time post-induction: 4.5 h; library: site-saturation at positions 5, 18, 19, 20
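Also: peptides expressed intracellularly from a pBAD plasmid library in pooled LB shake-flask culture, induced with 0.3% L-arabinose, DNA abundance read by NGS, three biological replicates, DESeq2 with apeglm shrinkage.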

Row | Sequence | shrunken log2 fold change
1 | RRIRERPPRLPRPRPRPRQKPRP | 0.0386
2 | RRIRERPPRLPRPRPRPRRMPRP | 0.119
3 | RRIRERPPRLPRPRPRPRTLPRP | -0.17
4 | RRIRERPPRLPRPRPRPRTNPRP | 0.00565
5 | RRIRERPPRLPRPRPRPRVKPRP | -0.207
6 | RRIRERPPRLPRPRPRPRVMPRP | -0.244
7 | RRIRERPPRLPRPRPRPRVYPRP | 0.000497
8 | RRIRERPPRLPRPRPRPRYDPRP | -0.246
9 | RRIRERPPRLPRPRPRPSANPRP | -0.35
10 | RRIRERPPRLPRPRPRPSAYPRP | -0.354
11 | RRIRERPPRLPRPRPRPSCDPRP | -0.281
12 | RRIRERPPRLPRPRPRPSCLPRP | -0.484
13 | RRIRERPPRLPRPRPRPSDNPRP | -1.25
14 | RRIRERPPRLPRPRPRPSGIPRP | -0.272
15 | RRIRERPPRLPRPRPRPSHCPRP | 0.0392
16 | RRIRERPPRLPRPRPRPSHGPRP | -0.263
17 | RRIRERPPRLPRPRPRPSKFPRP | -0.199
18 | RRIRERPPRLPRPRPRPSKNPRP | -0.895
19 | RRIRERPPRLPRPRPRPSLFPRP | -0.44
20 | RRIRERPPRLPRPRPRPSLKPRP | -0.217
21 | RRIRERPPRLPRPRPRPSMTPRP | 0.0627
22 | RRIRERPPRLPRPRPRPSNLPRP | -0.302
23 | RRIRERPPRLPRPRPRPSQIPRP | 0.012
24 | RRIRERPPRLPRPRPRPSQQPRP | 0.0678
25 | RRIRERPPRLPRPRPRPSRLPRP | 0.0431

Row | Sequence | shrunken log2 fold change
26 | RRIRERPPRLPRPRPRPSRMPRP | -0.0294
27 | RRIRERPPRLPRPRPRPSSGPRP | -0.648
28 | RRIRERPPRLPRPRPRPSSWPRP | -0.0518
29 | RRIRERPPRLPRPRPRPSSYPRP | -1.12
30 | RRIRERPPRLPRPRPRPSYHPRP | -0.66
31 | RRIRERPPRLPRPRPRPSYMPRP | -0.0864
32 | RRIRERPPRLPRPRPRPSYTPRP | -0.181
33 | RRIRERPPRLPRPRPRPTCSPRP | -0.397
34 | RRIRERPPRLPRPRPRPTDMPRP | -0.375
35 | RRIRERPPRLPRPRPRPTDQPRP | -0.127
36 | RRIRERPPRLPRPRPRPTEAPRP | 0.0834
37 | RRIRERPPRLPRPRPRPTFLPRP | -0.724
38 | RRIRERPPRLPRPRPRPTFMPRP | -0.157
39 | RRIRERPPRLPRPRPRPTGVPRP | -0.129
40 | RRIRERPPRLPRPRPRPTHKPRP | 0.0682
41 | RRIRERPPRLPRPRPRPTHMPRP | -0.182
42 | RRIRERPPRLPRPRPRPTHNPRP | -0.206
43 | RRIRERPPRLPRPRPRPTKTPRP | -0.0835
44 | RRIRERPPRLPRPRPRPTLIPRP | 0.0112
45 | RRIRERPPRLPRPRPRPTLMPRP | 0.0249
46 | RRIRERPPRLPRPRPRPTMGPRP | -0.253
47 | RRIRERPPRLPRPRPRPTMQPRP | 0.0612
48 | RRIRERPPRLPRPRPRPTNFPRP | -0.00437
49 | RRIRERPPRLPRPRPRPTNMPRP | -0.568
50 | RRIRERPPRLPRPRPRPTNNPRP | -0.591

Row | Sequence | shrunken log2 fold change
51 | RRIRERPPRLPRPRPRPTPAPRP | 0.239
52 | RRIRERPPRLPRPRPRPTREPRP | 0.329
53 | RRIRERPPRLPRPRPRPTRQPRP | 0.588
54 | RRIRERPPRLPRPRPRPTTPPRP | -0.0926
55 | RRIRERPPRLPRPRPRPTVEPRP | -0.0686
56 | RRIRERPPRLPRPRPRPTVIPRP | -0.0209
57 | RRIRERPPRLPRPRPRPTWDPRP | -0.327
58 | RRIRERPPRLPRPRPRPTYGPRP | 0.158
59 | RRIRERPPRLPRPRPRPTYNPRP | -0.908
60 | RRIRERPPRLPRPRPRPVCKPRP | 0.0272
61 | RRIRERPPRLPRPRPRPVDKPRP | -0.0448
62 | RRIRERPPRLPRPRPRPVDLPRP | -0.103
63 | RRIRERPPRLPRPRPRPVEWPRP | -0.00804
64 | RRIRERPPRLPRPRPRPVFDPRP | -0.461
65 | RRIRERPPRLPRPRPRPVFFPRP | 0.0585
66 | RRIRERPPRLPRPRPRPVFHPRP | -0.238
67 | RRIRERPPRLPRPRPRPVFIPRP | -0.281
68 | RRIRERPPRLPRPRPRPVHCPRP | -0.293
69 | RRIRERPPRLPRPRPRPVILPRP | -0.388
70 | RRIRERPPRLPRPRPRPVMHPRP | -0.0979
71 | RRIRERPPRLPRPRPRPVMPPRP | -0.259
72 | RRIRERPPRLPRPRPRPVNGPRP | -0.323
73 | RRIRERPPRLPRPRPRPVNNPRP | -0.871
74 | RRIRERPPRLPRPRPRPVNYPRP | -0.0115
75 | RRIRERPPRLPRPRPRPVPDPRP | 0.268

Row | Sequence | shrunken log2 fold change
76 | RRIRERPPRLPRPRPRPVPIPRP | 0.343
77 | RRIRERPPRLPRPRPRPVPQPRP | -0.195
78 | RRIRERPPRLPRPRPRPVQDPRP | -0.0228
79 | RRIRERPPRLPRPRPRPVQRPRP | 0.0476
80 | RRIRERPPRLPRPRPRPVSEPRP | 0.164
81 | RRIRERPPRLPRPRPRPVVNPRP | -0.257
82 | RRIRERPPRLPRPRPRPVWPPRP | 0.0958
83 | RRIRERPPRLPRPRPRPVYCPRP | -0.477
84 | RRIRERPPRLPRPRPRPVYGPRP | -0.375
85 | RRIRERPPRLPRPRPRPVYPPRP | -0.335
86 | RRIRERPPRLPRPRPRPVYWPRP | 0.0789
87 | RRIRERPPRLPRPRPRPWCKPRP | 0.00398
88 | RRIRERPPRLPRPRPRPWCVPRP | -0.94
89 | RRIRERPPRLPRPRPRPWDNPRP | -0.021
90 | RRIRERPPRLPRPRPRPWEQPRP | -0.131
91 | RRIRERPPRLPRPRPRPWFAPRP | -0.276
92 | RRIRERPPRLPRPRPRPWFWPRP | 0.061
93 | RRIRERPPRLPRPRPRPWGEPRP | -0.279
94 | RRIRERPPRLPRPRPRPWHYPRP | -0.067
95 | RRIRERPPRLPRPRPRPWLFPRP | -0.0723
96 | RRIRERPPRLPRPRPRPWLVPRP | -0.436
97 | RRIRERPPRLPRPRPRPWPHPRP | -0.0947
98 | RRIRERPPRLPRPRPRPWPWPRP | -0.233
99 | RRIRERPPRLPRPRPRPWRSPRP | 0.196
100 | RRIRERPPRLPRPRPRPWSCPRP | -0.11

Row | Sequence | shrunken log2 fold change
101 | RRIRERPPRLPRPRPRPWTFPRP | -0.292
102 | RRIRERPPRLPRPRPRPWVNPRP | -0.00303
103 | RRIRERPPRLPRPRPRPYACPRP | -0.0634
104 | RRIRERPPRLPRPRPRPYCCPRP | -0.899
105 | RRIRERPPRLPRPRPRPYCWPRP | -0.509
106 | RRIRERPPRLPRPRPRPYCYPRP | -0.979
107 | RRIRERPPRLPRPRPRPYDQPRP | -0.518
108 | RRIRERPPRLPRPRPRPYEIPRP | 0.0169
109 | RRIRERPPRLPRPRPRPYGKPRP | -0.00133
110 | RRIRERPPRLPRPRPRPYHVPRP | 0.0464
111 | RRIRERPPRLPRPRPRPYHYPRP | -0.102
112 | RRIRERPPRLPRPRPRPYIKPRP | -0.573
113 | RRIRERPPRLPRPRPRPYIMPRP | -0.542
114 | RRIRERPPRLPRPRPRPYIVPRP | 0.00789
115 | RRIRERPPRLPRPRPRPYKMPRP | -0.0803
116 | RRIRERPPRLPRPRPRPYKSPRP | -0.0824
117 | RRIRERPPRLPRPRPRPYMFPRP | -0.736
118 | RRIRERPPRLPRPRPRPYNAPRP | -1.26
119 | RRIRERPPRLPRPRPRPYNYPRP | -0.519
120 | RRIRERPPRLPRPRPRPYPEPRP | -0.918
121 | RRIRERPPRLPRPRPRPYPHPRP | -0.0727
122 | RRIRERPPRLPRPRPRPYPTPRP | -0.397
123 | RRIRERPPRLPRPRPRPYQIPRP | -0.388
124 | RRIRERPPRLPRPRPRPYRWPRP | -0.0887
125 | RRIRERPPRLPRPRPRPYRYPRP | -0.107

Row | Sequence | shrunken log2 fold change
126 | RRIRERPPRLPRPRPRPYSAPRP | -0.269
127 | RRIRERPPRLPRPRPRPYSHPRP | 0.0583
128 | RRIRERPPRLPRPRPRPYSIPRP | -0.0605
129 | RRIRERPPRLPRPRPRPYSQPRP | -0.443
130 | RRIRERPPRLPRPRPRPYTQPRP | -0.0502
131 | RRIRERPPRLPRPRPRPYTTPRP | -0.49
132 | RRIRERPPRLPRPRPRPYVEPRP | -0.534
133 | RRIRERPPRLPRPRPRPYYGPRP | -0.127
134 | RRIRERPPRLPRPRPRPYYLPRP | -0.827
135 | RRIRFRPPRLPRPRPRPAAQPRP | 0.122
136 | RRIRFRPPRLPRPRPRPACSPRP | 0.0139
137 | RRIRFRPPRLPRPRPRPADPPRP | 0.109
138 | RRIRFRPPRLPRPRPRPAESPRP | -0.117
139 | RRIRFRPPRLPRPRPRPAEWPRP | 0.512
140 | RRIRFRPPRLPRPRPRPAGPPRP | 0.118
141 | RRIRFRPPRLPRPRPRPAHFPRP | 0.0115
142 | RRIRFRPPRLPRPRPRPAHWPRP | 0.539
143 | RRIRFRPPRLPRPRPRPAHYPRP | -0.059
144 | RRIRFRPPRLPRPRPRPAIHPRP | -0.478
145 | RRIRFRPPRLPRPRPRPAIPPRP | -0.0151
146 | RRIRFRPPRLPRPRPRPAKCPRP | -0.00691
147 | RRIRFRPPRLPRPRPRPALGPRP | 0.423
148 | RRIRFRPPRLPRPRPRPALLPRP | -0.00442
149 | RRIRFRPPRLPRPRPRPALTPRP | 0.248
150 | RRIRFRPPRLPRPRPRPAMSPRP | -0.302

Source: the supplement of paper PMC9112550, “Optimization of the antimicrobial peptide Bac7 by deep mutational scanning” (BMC Biology, 2022)
